From the DeepSol protein solubility set

test: soluble on expression in E. coli; label from the status in PepcDB or PDB records

Sequence	soluble on expression in E. coli
MSLNSNEKMGIFQGKKMKTKIIVIVGPTAVGKTALAIEVAKRFNGEVVSGDSQQVYRGLDIGTAKASPEEQAAVPHHLIDVREITESYSAFDFVSEAKMTIEDIHSRGKLAIIAGGTGLYIQSLLEGYHLGGETPHEEILAYRASLEPYSDEELAHLVEQAGLEIPQFNRRRAMRALEIAHFGQDLENQEILYEPLIICLDDERSQLYERINHRVDLMFEAGLLDEAKWLFDHSPNVQAAKGIGYKELFPYFRGEQTFEEARESLKQATRRFAKRQLTWFRNRMQVTFYQIGESGVQDRILSQIEEFLDDEGHHHHHH	soluble
MSLNSPIQAVIFDWAGTIVDFGSFAPTSIFVEAFKQGFDFEISLAEAREPMGLGKWQHIEAVGKLPTVAQRWQKQFGRPMQASDIDAIYAAFMPLQIAKVADHAAPIPHSLEVVEQIRSRGIKIGSCSGYPRQVMDVLIAAAADYGYRPDYVVATDDLAQGGRPAPFMALKNVIELGVTDVRACVKVDDALPGIEEGHNAGMWTVGLLLSGNEAGLTLEEYQHADDQTLQAARERAQAKLQQAKPHYLIDTVADLPAVLAQIEQRLLAGEREGHHHHHH	soluble
MSLNSQGYAVVDFETTGLSPAKGDRAIEIGLVHVAPDGTLEDEHETLIHVDRSVGASWVHHITARELLHAPDFEGIAHELRDLLAGRVFVAHNVSFDSRFLLAEYSRMGASIPVDQSTMLCTMKLSRSLIGRGKLADCCEYFGIANEDAHSALSDAHATAILLGRLLEADPKWPGFQRRLDAAGAAAEQWPTEGHHHHHH	not soluble
MSLNTPLAERLRPKKLEDYLSQHHLVGENGSLQQALKAGIIPSLILWGPPGIGKTTLATIIAEESKRPFYTLSAINSGVKDIREVIDKAKQSGGLFTQKNPILFIDEIHRFSKSQQDSLLGAVERGWVTLVGATTENPSFEVIPALLSRCQVYILKPFEKKDLILLLNRAINTDEILKKKNITLLETEALLRLSGGDARKLLNIFELIVTTENDKDVVVTNDMVLSKVQQNIVRYDKTGEQHYDIISAFIKSIRGSDPNAAVYWLARMIEGGEDVKFIARRLIIAAAEDIGNANPTALVIANNCFQAVTTIGYPEARIILSQCVTYLASSPKSNAAYMAIGKAQQLVKQTGDLSVPLPLRNAPTKLMKEIGYGNDYKYSHDYPGNFVQQEFLPKEISGTTLYEPTDNTREKAIKENLKAKWGSKYNYEGHHHHHH	soluble
MSLNTYLNEISKFVDENREEIVSLWKEIVNMESYTHCKESVNKLAERLKLEFEKEGLDCELVDVGDNGSTLIGTLGSNIDKKPIIFSGHMDTVFETGTFGENPFKIIEGKAYGPGVLDMKGGIIISLYVIKALNKIGYKERPIKIVFSGDEEIGHKDSTGADVILREAKGGLCAFNMETGLVDNSLCVGRKGRIGCNIHVKGVETHAGNDFEGGRNAIEEMANKILRIQKLTNLDVGTTVSVSVIKGGRVENSIPEDCSIKVDLRFEKVEEMENVKEQVREICKETYIEGTSTEVNFISEMMPFETTEDVMRFHTFVNEVSKENGFGELNAKRLGGSSDASYLTIANVPTICSFGVRGEWNHTSREYAVVDSMFERVKLISTVILNLDKFEEGHHHHHH	soluble
MSLNVDPNITKYMIKAKIVTDGVVEKPDVVGAIFGQTEGLLGDELDLRDLQKSGKIGRIEVEIDTKKGRTEGYVLIPSGLDQVESSILAAALETIDRIGPCKAKVEIESIEDVRINKRDRVIKRAEELYRKMGENGKSLSESIVQTVREEVEKKEIISYGEEHLPAGPAIADSDSIIVVEGRNDVLNLLRYGIKNTIAVQGTSVPKTVKELSKSRTVTLFVDGDHGGDLIIKEMLQVADVDFIARAPPGTEVEELTYKQIIKALKYKTPVEQYLETHGMIEELKEWSSRNTKELEERQGNELKNERPEKINENEESEKNVELKEGSVQKLETVPEFDPSSPESIKFKLKQLYESRELELFDGQSSVGKFPVSDAIEKIESMHGDLLITGGIISQRLLDIAYNIGVKAIYGFKIGNITKKPDDIKVVAWDHIEGHHHHHH	soluble
MSLNYIEDIKNYIPFNEQEERDKELFLRCLNDFHDILTRDNTIAHLTSSAFAVNKERNKFLMIHHNIYNSWAWTGGHSDNEKDQLKVAIKELKEETGVKNPTPLLDKAFALDVLTVNGHIKRGKYVSSHLHLNLTYLIECSEDETLMLKEDENSGVMWIPFNEISKYCSEPHMIPIYEKLINKLKTQSKEGHHHHHH	soluble
MSLPFTTILRMSRSRLVKQKGNKKRMTTVVSNAREIAAIDLGSNSFHMVVAKVVDQDLQLISRHKQRVRLAAGLDEQKNLDEESIQRGLECLAMFAERLQGFEPRNVRIAATHTLRQARNANLFIQRALDVLPFPIEIIPGSEEARLIYLGVAHTQPQADSMLVVDIGGGSTEMIIGKGFEAELLNSKQMGCVNFTERYFANGKLSRKNFAQAIVASEQKLESIASKYRKKGWQMAFGSSGTIKAIHEVLIGQGHEDGLITFERLSKLIEKLCEWDSIDDLQLPGLTDDRKPVFAAGVAILSAIFHGLNIKEMHFSDGALREGLLYEMEDRFKYSDIRLRTTENLAAKHLVDLEHAAKVKGHAREFLAQVANELGLPEGSELCDLLEWGALLHEVGLSINLQGFHRHSAYILRHNNMAGFNSEQQLVLSNLARFQRKSLKLNELDDFSLFKKKHIIGLIRVLRLAIVVNGQRNDDPLPPLTLSAKDDEWRLECEQPDWLENNKLLHADLQTEQEYWREVGWQLLFEGHHHHHH	not soluble
MSLPNIFVEELVHTPIEKQVIEIVERKGIGHPDSLADGMAEAMSRELSREYIRRFGAVLHHNTDETQIVAGRSNPQFGGGEVIEPIYVLLVGRATKFFNGEYIPTDKIALKAARDYIRQHMQNLDPELDVVFNVRLGEGSTDLQDVFRRKSGNVALANDTSFGIGFAPLSETERLVFNVERRIYEEFRKKNPAIGEDVKVMGLREKDRISLTIAAAFVDRYVANIKEYDAIKEELENFVKEISSEYTEREVEVFVNTADDYETGCVYLTVTGTSAENGDDGSVGRGNRCNGLITPGRPMSMEASSGKNPINHVGKIYNLLANQIAARIAEEVEGVEEVYVRILSQIGKPINEPKALSVQVIPKSGYDISKLERPARDIAEEMIANVGKITDMVIEGKVRTFEGHHHHHH	soluble
MSLPQSKVLTSFGTANRTPRAAETHPLTWRLRDDGQPVWLEEYQTKQGYDAVRKALGQMSPDEIVSTVKDAGLKGRGGAGFPTGVKWGLMPKDESMNIRYLLCNADEMEPNTWKDRLLMEQLPHLLIEGMIISAKALKAYRGYIFLRGEYVDAAINLRRAVEEAKAAGLLGKNILGSGFDFELFVHTGAGRYICGEETALINSLEGRRANPRAKPPFPAVSGVWGKPTCVNNVETLCNVPAIIGNGVAWYHTLALPGSEDHGTKLMGFSGKVNNPGVWELPFGITARELFEGYAGGMRSGYRLKAWQPGGAGTGFLLPEHLDAQMYTAGIGKVGTRMGTGLAMAVDDSISMVSLLRNMEEFFARESCGWCTPCRDGLPWSVKLLRSLERGEGQEGDLATLEQLCNFLGPGKTFCAHAPGAVEPLASAIKYFRSEFEAGIKGSGDNRKSIKGIQPNLLGERWAAALEHHHHHH	soluble
MSLPRKIAYEIPKNWARSNHWLMKTIVGTTFEIEGLENIPETGCIFAPKHQSFWDTYALLPNLPDPVYILKRELLWIPLFGWYAMKQRMIPVNRAARGKVMLKVMERAKEEMAAGRELIIYPEGTRRPPGAEPEYRYGIARLYRDLQVPVIPVAMHPGLFWPRRSTMRYPGHFKVRILPAIEPGLDPDVFFKRLIEVTEKASDELLLETARNNPHLPLPPTAVKRIAELQGKETTADEGHHHHHH	not soluble
MSLPVCYYLDATGGDDNNSGLAPDEAWKSLEKLRGVKLLPGNKVLLKRGEVFNGELEITGQGIPEDRIYIDAYGDDERKPCIVGYDTSLYAARICNSDYITMQNLEIVNTGRQPLPYRSGLKIECMDYGVSQNIVVNNVTVRDVNGSLVKEKGGGCGIYIVNGGEKKISTFNRLTIENCHILRCTRNAMIWAAYSDRQNWHPSKHTVIRGNLIEEVPGDGIVPIGCDSTLIEYNVMRDCPDMLPDTEAAAGIWPWSCDNTLVQFNEVSGHKAPWDAQGFDSDWNCRGTVIQYNYSHDNYGGLVLVCNDGTADASFNVGNLGTIVRYNVSIGDGVRPEPTRAGMFSPAVHLAGPVKDSRITRNIIHVNRKPAADIDRTMITLDSWGGYPDSTFISGNIFYAPESSRFQLTESTHNFFEGNYYLGRFEKLPEDGKACQSAEIYQKEVLAKDENGYQGLALLMDTVEVTGVKGVFVNKEAIENFFSRLEKEGHHHHHH	soluble
MSLQADEQSNGKIKFSKFKVNIKNKDNKSNWTDMGTLVVEKVEYGIATGLNNDKQGGGHSSTFFSLEEEEVNNFVKAMTEGGSFKTSLYYGYKYEQSDEKGIQNKEIITKIEDINCSKHITFSGDKIAKNEGHHHHHH	not soluble
MSLQIKSIKAYHVVQPFVDGPYRMSKGRQADAFDAVIVAITADSGLTGWGEMAPLGNFYSAAFPAGARAGVPEIAPHLIGHDPRGLASIGRLMDTVFKGHPYIKSALDMACWDLAARAAGVPLVTMLGGRESDMAETYRVVTHGTLDQMAALAKRIIAEGCRRLQVKVGGNVHDDIERVTTVASAVPKGTVIFCDANAGWTPYQARQFADATRGIDYTFEQPCTTIEENMSVRRMLDKPMVLDESVTSLEEMLEIHRLGAADGLTLKISRLGGVTRTRQIRDVAVDLGFMITVEDTGGAEIDTAAMAHLSLSTPQERRLHAIAFHEWVTVRTAFNAPPVTGSHMGIPDGPGLGIDVDPSLLGKPFFEIGEGHHHHHH	soluble
MSLQIQNLTKQFGESKAVNSLQISLPKGEVLGLLGRNGAGKTTTIKMLLGLLTPNEGSITWDGKTFGTSGVTIGYLPEERGLYTKSRVIDQLRYFGRLEGMAKKEVDLAIDHWLDRLAIPEYKFKTAGELSKGNQQKIQLIAALLHNPELLILDEPFSGLDPVNAGMLASIIEEQVQSGKTIILSSHRMEQVEAFCQHVCILKKGEAVVKGQLSDIKKEYGFRNLTIEDTEENEKGLQAIHVSYEKQQGLLYVKVQDDAEALNILQQLQEQGVTLRQFKMLEPTLNEIFVERAK	not soluble
MSLQKELARNQHLAERLLETEESVRRDVARELHDDIGQTITAIRTQAGIVQRLAADNASVKQSGQLIEQLSLGVYDAVRRLLGRLRPRQLDDLTLEQAIRSLMREMELEGRGIVSHLEWRIEESALSENQRVTLFRVCQEGLNNIVKHADASAVTLQGWLQDERLMLVIEDDGSGLPPGSGQQGFGLTGMRERVTALGGTLTISCLHGTRVSVSLPQRYVEGHHHHHH	soluble
MSLQQQPPGTPKSTHGAWSVICDKPAGASEEQCALMQNVIADDRPEVGLSVVILKTADRKSRILRILAPLGVLLKDGMELYIDNNNIGRAYFTRCFSEGCYVEVDIDDELLKVLRAGKNAVFALRESVDQDRVGIPIELSGFAEGYDALPEGHHHHHH	not soluble
